Laboratory results as given in US20210009693A1 (MABSPACE BIOSCIENCES SUZHOU, published 2021).

B1: 4B6-H3L4 (antibody, V domains shown)
VH: QVQLVQSGAEVVKPGASVKISCKASGYVFTDYYMNWVKQAPGQGLEWIGDINPNNGGTSYNQKFQGRATVTVDKSTRTAYMELSRLRSDDTAVYYCVKWGDGPFAYWGQGTLVTVSS
VL: DIQMTQSPSSLSASVGDRVTITCQASQNVGAAVAWYQQKPGKAPKLLIYSASNLYTGVPSRFSGSGSGTDFTLTISSLQPEDIATYFCQQYSNYPTFGSGTKLGIK
notes: produced in 293 cells; light chain constant region not described; also called humanized 4B6 H3L4
B2: 26F5 (antibody, V domains shown)
VH: QVQLQQPGAELVKPGASVKLSCKASGYTFPSYWMHWMKQRPGQGLEWIGMIQPSTSGTIYNERFKNQVTLTVDKSSSTAYMQLSSQTSEDSAVYYCARGTGTVDYFDYWGQGTTLTVSS
VL: DIVLTQSPASLAVSLGQRATISCRASESVDSYGNSFIHWYQQKPGQPPKLLIHRASNLESGIPATFSGSGSRTDFTLTINPVEADDVATYYCQQSKEDPYTFGGGTKLEIK
notes: Mouse monoclonal from hybridoma; also called mouse monoclonal antibody 26F5

What was measured:
[1] = target: T1, human PD-L1 expressed on cells (human, UniProt Q9NZQ7 19-290); assay: blocking FACS on HCC827 cells; blocked ligand: biotinylated hPD-1-N297A
T1 construct: whole, on cells; also called hPD-L1 expressed on HCC827; hPD-L1 on MC38/hPD-L1 cells
T1 sequence (Q9NZQ7 19-290): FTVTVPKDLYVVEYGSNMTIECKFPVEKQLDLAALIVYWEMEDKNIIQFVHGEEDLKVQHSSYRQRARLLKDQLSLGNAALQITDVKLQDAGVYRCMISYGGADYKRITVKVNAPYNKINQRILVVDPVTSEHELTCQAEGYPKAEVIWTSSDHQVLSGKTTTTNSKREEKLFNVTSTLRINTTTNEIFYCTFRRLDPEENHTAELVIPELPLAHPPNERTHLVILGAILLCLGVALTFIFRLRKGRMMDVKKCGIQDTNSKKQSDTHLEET
Protocol: Log phase IFN-γ stimulated (500U/ml for 2 days) HCC827 cells were collected and resuspended in blocking buffer (5% BSA+PBS). 2×10\hat{ }5 cells were added to each tube and then washed once with PBS (1500 rpm, 5 mins, RT). […] After washing for three times with PBS, 100 μl/tube streptavidin-PE 1:200 in blocking buffer was added to each tube. The cells were incubated at 4° C. for 1 hr and then washed twice with PBS, followed by resuspending cells in 150 μl PBS for each sample. The cells were then transferred into FACS tube and the binding of the antibodies to the cells were detected with flow cytometry (ACEA Bioscience Novocyte) (see FIGS. 20A and 20B).

[2] = target: T1, human PD-L1 expressed on cells; assay: FACS, IFN-gamma stimulated HCC827 cells
[3] = target: T2, Human PD-L1/CD274 with C-Fc Tag (hPD-L1-Fc) (human, UniProt Q9NZQ7 19-238); assay: blocking ELISA on coated hPD-L1-Fc; blocked ligand: biotinylated hPD-1-N297A
T2 construct: range 19-238; ACRO Biosystem PD1-H5258, made in HEK293; also called human PD-L1-Fc; not shown: Fc fragment of human IgG1 at C-terminus
T2 sequence (Q9NZQ7 19-238 limits assumed): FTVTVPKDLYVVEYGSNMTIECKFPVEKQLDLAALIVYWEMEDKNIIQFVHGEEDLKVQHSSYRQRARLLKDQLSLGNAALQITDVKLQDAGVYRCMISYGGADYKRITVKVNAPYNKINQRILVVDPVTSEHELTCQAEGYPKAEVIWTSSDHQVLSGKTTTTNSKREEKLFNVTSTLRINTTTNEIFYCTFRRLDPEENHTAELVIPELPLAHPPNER

[4] = target: T3, Recombinant Mouse PD-L1/CD274 Protein (mPD-L1-his) (mouse, UniProt Q9EP73 19-238); assay: ELISA, 20 ug/ml antibody on coated mouse PD-L1 (his-tagged per text, mPD-L1-Fc per sheet title)
T3 construct: range 19-238; ACRO Biosystem PD1-M5220; also called mouse PD-L1-his
T3 sequence (Q9EP73 other isoform, or with tags, fused parts or gaps limits assumed): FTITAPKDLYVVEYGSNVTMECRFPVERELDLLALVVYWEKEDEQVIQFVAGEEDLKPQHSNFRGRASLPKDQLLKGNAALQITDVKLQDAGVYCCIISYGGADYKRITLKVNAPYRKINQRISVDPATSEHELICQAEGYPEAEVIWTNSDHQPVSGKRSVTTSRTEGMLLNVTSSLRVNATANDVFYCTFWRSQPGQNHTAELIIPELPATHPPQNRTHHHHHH
Protocol: High-binding clear polystyrene 96 well plates (Nunc) were coated with 100 μl/well of 1 μg/ml mouse PD-L1-his in high pH coating buffer and incubated overnight at 4° C. Then plates were washed once on an automatic plate washer using washing buffer (PBS+0.1% Tween 20 (Sigma)). 200 μl of blocking buffer (PBS+1% BSA+1% normal goat serum+0.05% Tween-20) was added to each well and incubated for 2 hours at room temp. Then add 20 μg/ml purified hybridoma mouse antibodies in dilution buffer (PBS+1% BSA+1% normal goat serum+0.01% Tween-20) and incubate for 1 hour at RT. The plates were then washed 3 times with 250 μl/well washing buffer. 100 μl/well of a solution of HRP conjugated goat anti-mouse Fc antibody (Abcam) in dilution buffer was then added to each well of the plate. After that the ELISA plates were allowed to incubate for 60 min at RT then plates were washed 3 times with 250 μl/well washing buffer. Finally, 100 μl/well of TMB was added to each well and the reaction was terminated using 0.64M H₂SO₄. The plates were read on a Thermo Multiscan FC at 450 nM (see FIG. 6F).

[5] = target: T4, Recombinant Human PD-L1/CD274 Protein (hPD-L1-his) (human, UniProt Q9NZQ7 19-238); assay: ELISA, purified mouse antibody on coated hPD-L1-his
T4 construct: range 19-238; ACRO Biosystem PD1-H5229, made in HEK293; also called human PD-L1-his; hPD-L-his
T4 sequence (Q9NZQ7 other isoform, or with tags, fused parts or gaps limits assumed): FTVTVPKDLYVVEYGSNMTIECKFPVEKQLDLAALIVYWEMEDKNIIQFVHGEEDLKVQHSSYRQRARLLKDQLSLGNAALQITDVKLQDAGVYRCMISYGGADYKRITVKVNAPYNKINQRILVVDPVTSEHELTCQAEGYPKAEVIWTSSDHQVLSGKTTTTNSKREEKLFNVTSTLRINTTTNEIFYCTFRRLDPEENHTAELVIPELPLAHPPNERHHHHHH
Protocol: High-binding clear polystyrene 96 well plates (Nunc) were coated with 100 μl/well of a 0.5 μg/ml hPD-L1-his in high pH coating buffer and incubated overnight 4° C. Then plates were washed once on an automatic plate washer using washing buffer (PBS+0.1% Tween 20 (Sigma)). 200 μl of blocking buffer (PBS+1% BSA+1% normal goat serum+0.05% Tween-20) was added to each well and incubated 2 hours at room temp. Then add serially diluted purified antibodies with dilution buffer (PBS+1% BSA+1% normal goat serum+0.01% Tween-20) and incubate for 1 hour at RT. The plates were then washed 3 times using the method described above. 100 μl/well of a solution of HRP conjugated goat anti-mouse Fc antibody (Abcam) in dilution buffer was then added to each well of the plate. After that the ELISA plates were allowed to incubate for 60 min at RT then plates were washed 3 times with 250 μl/well washing buffer. Finally, 100 μl/well of TMB was added to each well and was terminated using 0.64M H₂SO₄. The plates were read on a Thermo Multiscan FC at 450 nM (see FIG. 3).

hPD-L2-Fc = target: T5, hPD-L2-Fc (human, UniProt Q9BQ51 20-219); assay: ELISA, plate coated with hPD-L2-Fc
T5 construct: Acrobiosystems PD2-H5251; also called human PD-L2 protein; not shown: Fc tag
T5 sequence (looked up): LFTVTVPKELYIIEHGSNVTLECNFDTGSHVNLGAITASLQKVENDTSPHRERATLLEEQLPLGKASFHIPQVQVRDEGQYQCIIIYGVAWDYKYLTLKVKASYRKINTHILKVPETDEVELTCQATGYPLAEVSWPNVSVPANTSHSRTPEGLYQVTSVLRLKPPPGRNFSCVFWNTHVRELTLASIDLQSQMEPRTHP
Protocol: Briefly, high-binding clear polystyrene 96 well plates (Nunc) were coated with 100 μl/well of a 0.5 μg/ml human PD-L1-Fc (Acrobiosystems, Cat #PD1-H5258) or 100 μl/well of a 1 μg/ml hPD-L2-Fc (Acrobiosystems, Cat #PD2-H5251), respectively, in high pH coating buffer (0.16% Na2CO3+0.3% NaHCO₃, pH 9.8) and incubated overnight at 4° C. Then the plates were washed once on an automatic plate washer using washing buffer (PBS+0.1% Tween 20 (Amresco)). 200 μl of blocking buffer (PBS+1% BSA+1% normal goat serum+0.05% Tween-20) was added to each well and incubated for 2 hours at room temp. Then add 100 μl 2 μg/ml purified PD-L1 antibodies with dilution buffer (PBS+1% BSA+1% normal goat serum+0.01% Tween-20) and incubate for 1 hour at RT. The plates were then washed 3 times with washing buffer. 100 μl/well of a solution of HRP conjugated goat anti-mouse IgG antibody (1:20000, Abcam) in dilution buffer was then added to each well of the plate. After that the ELISA plates were allowed to incubate for 60 min at RT then the plates were washed 3 times with 250 μl/well washing buffer. Finally, 100 μl/well of TMB was added to each well for 15 min and the reaction was terminated using 50 ul/well of 0.16 M/L sulfuric acid. The plates were read on a Thermo Multiscan FC at 450 nM (see FIG. 6G).

[6] = target: T6, human PD-L1-Fc mutant E58A (human); assay: ELISA on captured PD-L1-Fc, as in Example 18A
T6 construct: Position 58 counts on native human PD-L1 (NP_054862.1); also called E58A mutant
T6 sequence (chain, as listed by the source E58A E58A limits assumed): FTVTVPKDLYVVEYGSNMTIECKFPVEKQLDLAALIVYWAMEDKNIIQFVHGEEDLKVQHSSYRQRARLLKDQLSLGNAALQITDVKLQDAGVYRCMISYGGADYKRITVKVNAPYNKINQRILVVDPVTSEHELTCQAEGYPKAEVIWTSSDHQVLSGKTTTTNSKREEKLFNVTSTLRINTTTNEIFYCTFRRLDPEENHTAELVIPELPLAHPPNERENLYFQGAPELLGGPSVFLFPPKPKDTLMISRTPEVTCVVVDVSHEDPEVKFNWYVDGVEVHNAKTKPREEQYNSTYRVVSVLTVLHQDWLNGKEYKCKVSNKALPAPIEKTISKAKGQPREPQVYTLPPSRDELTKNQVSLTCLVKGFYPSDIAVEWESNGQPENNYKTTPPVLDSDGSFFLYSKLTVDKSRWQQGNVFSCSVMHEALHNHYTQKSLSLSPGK

[7] = target: T7, wild type human PD-L1-Fc protein (SEQ ID NO: 107) (human); assay: ELISA on captured PD-L1-Fc, as in Example 18A
T7 construct: Extracellular human PD-L1 (amino acid 19-238) with Fc fragment of human IgG1, expressed in 293T cells and used as culture supernatant; also called WT PD-L1; wild-type PD-L1
T7 sequence (chain, as listed by the source limits assumed): as the sequence (chain, as listed by the source E58A E58A limits assumed) above, with A40E counted along it

[8] = target: T2, Human PD-L1/CD274 with C-Fc Tag …; assay: blocking ELISA on coated hPD-L1-Fc; blocked ligand: biotinylated hPD-1-Fc-N297A
Protocol: High-binding clear polystyrene 96 well plates (Nunc) were coated with 100 μl/well of coating solution consisting of 0.5 μg/ml hPD-L1-Fc overnight at 4° C. Then washed once on an automatic plate washer using washing buffer PBS+0.1% Tween 20 (Sigma). 200 μl of blocking buffer (PBS+1% BSA+1% normal goat serum+0.05% Tween-20) was added to each well and incubated for 2 hours at room temperature. Then add serial diluted antibodies (from 10 μg/ml to 0.0006 μg/ml) with dilution buffer (PBS+1% BSA+1% normal goat serum+0.01% Tween-20) and incubate for 1 hour at RT. The plates were then washed 3 times using the method described above. […] After the plates were washed 3 times, 100 μl/well of a solution of HRP conjugated Neutravidin antibody (Pierce) diluted in dilution buffer was then added to each well of the plate. After that the ELISA plates were allowed to incubate for 60 min at RT then plates were washed 3 times with 250 μl/well washing buffer. Finally, 100 μl/well of TMB was added to each well and reaction was terminated using 0.64M H₂SO₄. The plates were read on a Thermo Multiscan FC at 450 nM (see FIG. 4A).

Row | Binder | IC50 (read off the curve) [1] [µg/mL] | EC50 (read off the curve) [2] [µg/mL] | IC50 (read off the curve) [3] [µg/mL] | binding result [4] | EC50 (read off the curve) [5] [µg/mL] | binding result (hPD-L2-Fc) | % of binding of Ab to E58A mutant vs. that to WT PD-L1 [6] [%] | Mean OD450 [6] [OD450] | OD450 nM of sample-1 [6] [OD450] | OD450 nM of sample-2 [6] [OD450] | Mean OD450 [7] [OD450] | OD450 nM of sample-1 [7] [OD450] | OD450 nM of sample-2 [7] [OD450] | IC50 (read off the curve) [8] [µg/mL]
1 | B1 | ~0.02 | ~0.04 | ~0.03 | – | – | – | – | – | – | – | – | – | – | –
2 | B2 | – | – | – | no binding (tested: 20 ug/ml) | ~0.003 | no binding (tested: 2 ug/ml) | 60.6 | 0.93 | 1.18 | 0.678 | 1.53 | 1.39 | 1.68 | ~0.02
